Results reported in IntAct's records for PubMed 29039417.

B1: BBSome complex member BBS2 (Homo sapiens), Q9BXC9 (parent)
chain: MLLPVFTLKLRHKISPRMVAIGRYDGTHPCLAAATQTGKVFIHNPHTRNQHVSASRVFQSPLESDVSLLSINQAVSCLTAGVLNPELGYDALLVGTQTNLLAYDVYNNSDLFYREVADGANAIVLGTLGDISSPLAIIGGNCALQGFNHEGSDLFWTVTGDNVNSLALCDFDGDGKKELLVGSEDFDIRVFKEDEIVAEMTETEIVTSLCPMYGSRFGYALSNGTVGVYDKTSRYWRIKSKNHAMSIHAFDLNSDGVNELITGWSNGKVDARSDRTGEVIFKDNFSSAIAGVVEGDYRMDGHIQLICCSVDGEIRGYLPGTAEMRGNLMDTSAEQDLIRELSQKKQNLLLELRNYEENAKAELASPLNEADGHRGIIPANTRLHTTLSVSLGNETQTAHTELRISTSNDTIIRAVLIFAEGIFTGESHVVHPSIHNLSSSICIPIVPPKDVPVDLHLKAFVGYRSSTQFHVFESTRQLPRFSMYALTSLDPASEPISYVNFTIAERAQRVVVWLGQNFLLPEDTHIQNAPFQVCFTSLRNGGHLHIKIKLSGEITINTDDIDLAGDIIQSMASFFAIEDLQVEADFPVYFEELRKVLVKVDEYHSVHQKLSADMADHSNLIRSLLVGAEDARLMRDMKTMKSRYMELYDLNRDLLNGYKIRCNNHTELLGNLKAVNQAIQRAGRLRVGKPKNQVITACRDAIRSNNINTLFKIMRVGTASS
partner: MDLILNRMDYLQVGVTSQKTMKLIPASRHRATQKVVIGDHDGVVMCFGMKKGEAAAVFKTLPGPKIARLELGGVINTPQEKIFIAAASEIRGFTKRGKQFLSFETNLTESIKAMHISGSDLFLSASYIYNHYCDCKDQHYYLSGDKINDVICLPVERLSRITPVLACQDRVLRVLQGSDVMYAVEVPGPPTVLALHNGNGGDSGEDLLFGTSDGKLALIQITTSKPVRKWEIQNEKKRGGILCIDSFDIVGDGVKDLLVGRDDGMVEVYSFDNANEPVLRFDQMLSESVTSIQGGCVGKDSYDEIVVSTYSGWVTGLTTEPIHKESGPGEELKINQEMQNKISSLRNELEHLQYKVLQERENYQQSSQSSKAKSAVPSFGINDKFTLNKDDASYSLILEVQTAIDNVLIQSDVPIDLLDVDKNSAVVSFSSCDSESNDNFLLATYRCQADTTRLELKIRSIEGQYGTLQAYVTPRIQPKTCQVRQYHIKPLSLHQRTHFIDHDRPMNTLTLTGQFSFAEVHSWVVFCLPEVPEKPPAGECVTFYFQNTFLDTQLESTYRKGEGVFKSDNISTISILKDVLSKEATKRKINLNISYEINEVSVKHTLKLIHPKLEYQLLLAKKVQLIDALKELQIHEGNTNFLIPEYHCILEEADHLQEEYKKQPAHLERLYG

Variants of: B1
Details: with BBS7, Q8IWZ6-2

| effect of a mutation on the interaction | Variant |
| --- | --- |
| with no effect | I556E |
| with no effect | A529K |
| with no effect | R509K |
| with no effect | T555A |
| disrupting interaction strength | T555H |
| with no effect | T555K |
| disrupting interaction strength | Q532A |
| with no effect | Q532E |
| with no effect | L514K |
| with no effect | L514A |
| with no effect | N500K |
| with no effect | H525K |
| with no effect | H525A |
| with no effect | E505A |
| with no effect | E505K |
| with no effect | A507K |
| with no effect | V511E |
| with no effect | G541K |
| with no effect | G541A |
| with no effect | I546A |
| with no effect | I546E |
| with no effect | V533A |
| with no effect | V533K |

| effect of a mutation on the interaction | Variant |
| --- | --- |
| disrupting interaction strength | N540A |
| with no effect | N540E |
| with no effect | N540K |
| with no effect | S537E |
| with no effect | S537K |
| with no effect | I554A |
| with no effect | R506K |
| with no effect | R539K |
| with no effect | R539A |
| with no effect | F535E |
| with no effect | S551E |
| with no effect | L519K |
| with no effect | C534K |
| with no effect | C534A |
| with no effect | L550A |
| disrupting interaction strength | N517K |
| with no effect | N517A |
| disrupting interaction strength | A504S |
| with no effect | A504K |
| with no effect | V510E |
| disrupting interaction strength | V510K |
| with no effect | Q527A |
| with no effect | V512E |

| effect of a mutation on the interaction | Variant |
| --- | --- |
| with no effect | V512A |
| with no effect | L520E |
| with no effect | L520K |
| disrupting interaction strength | L538R |
| with no effect | L538K |
| with no effect | L538A |
| disrupting interaction strength | L544E |
| disrupting interaction strength | L544K |
| with no effect | E522A |
| disrupting interaction strength | H545K |
| with no effect | H545A |
| disrupting interaction strength | W513K |
| disrupting interaction strength | W513R |
| disrupting interaction strength | W513E |
| disrupting interaction strength | G552R |
| with no effect | G552K |
| with no effect | G552E |
| with no effect | G552A |
| with no effect | Q508E |
| with no effect | Q508K |
| with no effect | Q508A |
| with no effect | N528K |
| with no effect | G542A |

| effect of a mutation on the interaction | Variant |
| --- | --- |
| with no effect | G542K |
| with no effect | I503A |
| disrupting interaction strength | I503K |
| with no effect | H543A |
| with no effect | I526K |
| with no effect | I526E |
| with no effect | G515K |
| with no effect | G515A |
| with no effect | K547A |
| with no effect | T524K |
| with no effect | P530E |
| with no effect | P530A |
| with no effect | P530K |
| disrupting interaction strength | F518L |
| with no effect | F518A |
| with no effect | T536E |
| with no effect | K549A |
| with no effect | I548K |
| with no effect | F531K |
| with no effect | E553A |

More lines, now with the values behind:

| Variant | effect of a mutation on the interaction |
| --- | --- |
| I556A | with no effect |
| A529E | with no effect |
| R509E | with no effect |
| R509A | with no effect |
| T555E | with no effect |
| Q532K | with no effect |
| L514E | with no effect |
| N500E | with no effect |
| N500A | with no effect |
| H525E | with no effect |
| A507E | with no effect |
| V511A | with no effect |
| V511K | with no effect |
| G541E | with no effect |
| I546K | with no effect |
| V533E | disrupting interaction strength |
| P521K | with no effect |
| P521E | with no effect |
| P521A | with no effect |
| S537A | with no effect |
| I554K | with no effect |

| Variant | effect of a mutation on the interaction |
| --- | --- |
| I554E | with no effect |
| R506A | disrupting interaction strength |
| R506E | with no effect |
| R539E | with no effect |
| F535A | with no effect |
| F535K | disrupting interaction strength |
| S551K | with no effect |
| S551A | with no effect |
| L519A | with no effect |
| L519E | disrupting interaction strength |
| C534E | with no effect |
| L550K | with no effect |
| L550E | with no effect |
| N517E | with no effect |
| A504E | with no effect |
| V510A | with no effect |
| Q527K | with no effect |
| Q527E | with no effect |
| V512K | with no effect |
| L520A | with no effect |
| L538E | with no effect |

| Variant | effect of a mutation on the interaction |
| --- | --- |
| L538G | disrupting interaction strength |
| V499R | disrupting interaction strength |
| L544A | with no effect |
| L544S | disrupting interaction strength |
| Q516K | with no effect |
| Q516A | with no effect |
| Q516E | with no effect |
| E522K | with no effect |
| H545E | with no effect |
| W513G | disrupting interaction strength |
| W513A | disrupting interaction strength |
| N528A | with no effect |
| N528E | with no effect |
| G542E | with no effect |
| I503E | with no effect |
| H543K | with no effect |
| H543E | with no effect |
| T502A | with no effect |
| T502E | with no effect |
| T502K | with no effect |
| I526A | with no effect |

| Variant | effect of a mutation on the interaction |
| --- | --- |
| G515E | with no effect |
| K547E | disrupting interaction strength |
| T524A | with no effect |
| T524E | with no effect |
| D523E | with no effect |
| D523K | with no effect |
| D523A | with no effect |
| F501E | disrupting interaction strength |
| F501K | disrupting interaction strength |
| F501A | with no effect |
| F501S | disrupting interaction strength |
| F518K | with no effect |
| F518E | with no effect |
| T536K | with no effect |
| T536A | with no effect |
| K549E | with no effect |
| I548A | with no effect |
| I548E | with no effect |
| F531A | with no effect |
| F531E | with no effect |
| E553K | with no effect |
